# According to the supplement of paper PMC9112550, “Optimization of the antimicrobial peptide Bac7 by deep mutational scanning” (BMC Biology, 2022):
# System: Escherichia coli TOP10
# Test: shrunken log2 fold change of peptide-encoding DNA abundance (4.5 h post-induction vs induction); higher = less antimicrobial activity (less host growth inhibition)
# Conditions: time post-induction: 4.5 h; library: site-saturation at positions 5, 18, 19, 20
# 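Also: peptides expressed intracellularly from a pBAD plasmid library in pooled LB shake-flask culture, induced with 0.3% L-arabinose, DNA abundance read by NGS, three biological replicates, DESeq2 with apeglm shrinkage.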
row,Sequence,shrunken log2 fold change
1,RRIRMRPPRLPRPRPRPVLHPRP,-0.309
2,RRIRCRPPRLPRPRPRPFGRPRP,-0.207
3,RRIRGRPPRLPRPRPRPDCMPRP,0.909
4,RRIRQRPPRLPRPRPRPNEAPRP,-0.0868
5,RRIRYRPPRLPRPRPRPHDFPRP,-0.167
6,RRIRFRPPRLPRPRPRPRMVPRP,-0.157
7,RRIRDRPPRLPRPRPRPKNGPRP,0.74
8,RRIRMRPPRLPRPRPRPDQNPRP,0.405
9,RRIRPRPPRLPRPRPRPIYRPRP,-0.158
10,RRIRERPPRLPRPRPRPNMHPRP,-0.619
11,RRIRFRPPRLPRPRPRPPDPPRP,0.571
12,RRIRRRPPRLPRPRPRPECSPRP,-0.121
13,RRIRNRPPRLPRPRPRPVFWPRP,0.219
14,RRIRLRPPRLPRPRPRPRKKPRP,0.355
15,RRIRPRPPRLPRPRPRPSMKPRP,-0.223
16,RRIRVRPPRLPRPRPRPPWEPRP,0.252
17,RRIRNRPPRLPRPRPRPDMVPRP,0.00433
18,RRIRKRPPRLPRPRPRPDAWPRP,-0.0106
19,RRIRQRPPRLPRPRPRPPYGPRP,-0.408
20,RRIRWRPPRLPRPRPRPDEHPRP,0.0519
21,RRIRWRPPRLPRPRPRPIVHPRP,-0.175
22,RRIRGRPPRLPRPRPRPTQMPRP,0.924
23,RRIRARPPRLPRPRPRPNSLPRP,-0.207
24,RRIRIRPPRLPRPRPRPTVWPRP,0.163
25,RRIRMRPPRLPRPRPRPYTFPRP,-0.0434

row,Sequence,shrunken log2 fold change
1,RRIRRRPPRLPRPRPRPTKPPRP,0.541
2,RRIRGRPPRLPRPRPRPIMEPRP,0.229
3,RRIRTRPPRLPRPRPRPVNFPRP,-0.484
4,RRIRFRPPRLPRPRPRPVVRPRP,0.153
5,RRIRERPPRLPRPRPRPAMDPRP,0.283
6,RRIRWRPPRLPRPRPRPGWCPRP,0.362
7,RRIRCRPPRLPRPRPRPDNAPRP,-0.164
8,RRIRPRPPRLPRPRPRPPLSPRP,0.161
9,RRIRPRPPRLPRPRPRPRFQPRP,-0.0819
10,RRIRPRPPRLPRPRPRPDQTPRP,0.0118
11,RRIRMRPPRLPRPRPRPNEQPRP,0.37
12,RRIRLRPPRLPRPRPRPCAVPRP,-0.00495
13,RRIRHRPPRLPRPRPRPAPQPRP,0.588
14,RRIRKRPPRLPRPRPRPYRSPRP,0.0428
15,RRIRARPPRLPRPRPRPMFFPRP,0.0123
16,RRIRKRPPRLPRPRPRPNGDPRP,-0.024
17,RRIRERPPRLPRPRPRPCAVPRP,-0.0406
18,RRIRKRPPRLPRPRPRPGLGPRP,0.406
19,RRIRTRPPRLPRPRPRPALRPRP,0.398
20,RRIRNRPPRLPRPRPRPPWWPRP,0.788
21,RRIRHRPPRLPRPRPRPYVEPRP,0.0369
22,RRIRVRPPRLPRPRPRPIFTPRP,-0.0783
23,RRIRFRPPRLPRPRPRPFLIPRP,-0.304
24,RRIRPRPPRLPRPRPRPHILPRP,-0.381
25,RRIRVRPPRLPRPRPRPPYDPRP,-0.0602

row,Sequence,shrunken log2 fold change
1,RRIRFRPPRLPRPRPRPCMHPRP,-0.111
2,RRIRHRPPRLPRPRPRPHYPPRP,-0.208
3,RRIRNRPPRLPRPRPRPVYMPRP,-0.0311
4,RRIRNRPPRLPRPRPRPIRTPRP,-0.176
5,RRIRRRPPRLPRPRPRPVFRPRP,0.226
6,RRIRARPPRLPRPRPRPYKSPRP,-0.441
7,RRIRHRPPRLPRPRPRPWGSPRP,-0.356
8,RRIRQRPPRLPRPRPRPGQIPRP,-0.226
9,RRIRHRPPRLPRPRPRPESPPRP,0.0722
10,RRIRARPPRLPRPRPRPFDFPRP,0.00925
11,RRIRTRPPRLPRPRPRPYYDPRP,-0.24
12,RRIRVRPPRLPRPRPRPQLQPRP,-0.104
13,RRIRIRPPRLPRPRPRPIKMPRP,-0.177
14,RRIRFRPPRLPRPRPRPWVYPRP,-0.327
15,RRIRTRPPRLPRPRPRPRYLPRP,-0.131
16,RRIRIRPPRLPRPRPRPIHQPRP,-1.14
17,RRIRSRPPRLPRPRPRPYIEPRP,-0.183
18,RRIRARPPRLPRPRPRPYTFPRP,-0.444
19,RRIRTRPPRLPRPRPRPVYMPRP,-0.382
20,RRIRMRPPRLPRPRPRPHYQPRP,-0.228
21,RRIRVRPPRLPRPRPRPKMNPRP,-0.262
22,RRIRQRPPRLPRPRPRPLLSPRP,0.00947
23,RRIRMRPPRLPRPRPRPAVCPRP,0.103
24,RRIRWRPPRLPRPRPRPTNYPRP,-0.347
25,RRIRRRPPRLPRPRPRPKTWPRP,-0.0361

row,Sequence,shrunken log2 fold change
1,RRIRYRPPRLPRPRPRPGFHPRP,-0.564
2,RRIRNRPPRLPRPRPRPFQIPRP,-0.121
3,RRIRLRPPRLPRPRPRPIDKPRP,-0.122
4,RRIRPRPPRLPRPRPRPSNCPRP,-0.909
5,RRIRGRPPRLPRPRPRPDKFPRP,0.0879
6,RRIRIRPPRLPRPRPRPLLAPRP,0.185
7,RRIRFRPPRLPRPRPRPQQHPRP,-0.38
8,RRIRLRPPRLPRPRPRPSYCPRP,-0.413
9,RRIRYRPPRLPRPRPRPYSAPRP,-1.51
10,RRIRTRPPRLPRPRPRPSWMPRP,-0.466
11,RRIRSRPPRLPRPRPRPPFFPRP,0.143
12,RRIRFRPPRLPRPRPRPHHEPRP,-0.515
13,RRIRQRPPRLPRPRPRPKECPRP,-0.0193
14,RRIRIRPPRLPRPRPRPRCAPRP,0.204
15,RRIRLRPPRLPRPRPRPDMIPRP,-0.0232
16,RRIRIRPPRLPRPRPRPWMYPRP,-0.184
17,RRIRGRPPRLPRPRPRPDLNPRP,0.843
18,RRIRQRPPRLPRPRPRPSMKPRP,-0.166
19,RRIRPRPPRLPRPRPRPAMQPRP,0.11
20,RRIRQRPPRLPRPRPRPRVTPRP,0.238
21,RRIRFRPPRLPRPRPRPYVLPRP,-0.332
22,RRIRMRPPRLPRPRPRPRTPPRP,1.26
23,RRIRWRPPRLPRPRPRPNYYPRP,-0.705
24,RRIRGRPPRLPRPRPRPTDYPRP,-0.00915
25,RRIRLRPPRLPRPRPRPKEGPRP,-0.0145

row,Sequence,shrunken log2 fold change
1,RRIRLRPPRLPRPRPRPQVPPRP,-0.0408
2,RRIRVRPPRLPRPRPRPGNLPRP,-0.101
3,RRIRRRPPRLPRPRPRPNMVPRP,-0.0449
4,RRIRVRPPRLPRPRPRPMIVPRP,0.109
5,RRIRRRPPRLPRPRPRPNMWPRP,-0.253
6,RRIRPRPPRLPRPRPRPREYPRP,0.115
7,RRIRVRPPRLPRPRPRPTLLPRP,-0.196
8,RRIRDRPPRLPRPRPRPQVYPRP,0.175
9,RRIRWRPPRLPRPRPRPNSGPRP,0.0642
10,RRIRRRPPRLPRPRPRPGHVPRP,-0.00681
11,RRIRCRPPRLPRPRPRPFCWPRP,0.31
12,RRIRARPPRLPRPRPRPYTCPRP,-0.0591
13,RRIRPRPPRLPRPRPRPPTYPRP,-0.204
14,RRIRDRPPRLPRPRPRPPAQPRP,0.296
15,RRIRMRPPRLPRPRPRPGNCPRP,0.0879
16,RRIRDRPPRLPRPRPRPMMMPRP,-0.0648
17,RRIRNRPPRLPRPRPRPHSNPRP,-0.341
18,RRIRERPPRLPRPRPRPYWHPRP,-0.168
19,RRIRNRPPRLPRPRPRPIQRPRP,0.00743
20,RRIRARPPRLPRPRPRPSSFPRP,-0.196
21,RRIRFRPPRLPRPRPRPADVPRP,0.258
22,RRIRFRPPRLPRPRPRPDARPRP,-0.0768
23,RRIRFRPPRLPRPRPRPCYHPRP,-0.859
24,RRIRTRPPRLPRPRPRPYRHPRP,-0.0901
25,RRIRCRPPRLPRPRPRPNTEPRP,-0.161

row,Sequence,shrunken log2 fold change
1,RRIRGRPPRLPRPRPRPRRYPRP,0.0823
2,RRIRNRPPRLPRPRPRPKTIPRP,-0.14
3,RRIRQRPPRLPRPRPRPFGSPRP,-0.156
4,RRIRPRPPRLPRPRPRPTSRPRP,-0.0592
5,RRIRNRPPRLPRPRPRPWGFPRP,-0.103
6,RRIRWRPPRLPRPRPRPQPNPRP,0.127
7,RRIRMRPPRLPRPRPRPQGMPRP,0.0363
8,RRIRPRPPRLPRPRPRPFRSPRP,-0.152
9,RRIRVRPPRLPRPRPRPPKAPRP,0.077
10,RRIRSRPPRLPRPRPRPWEFPRP,0.236
11,RRIRIRPPRLPRPRPRPQLCPRP,-0.222
12,RRIRNRPPRLPRPRPRPDNNPRP,-0.187
13,RRIRYRPPRLPRPRPRPVSEPRP,-0.00125
14,RRIRWRPPRLPRPRPRPKSRPRP,-0.0202
15,RRIRLRPPRLPRPRPRPGHWPRP,0.279
16,RRIRLRPPRLPRPRPRPVALPRP,0.0145
17,RRIRARPPRLPRPRPRPKFNPRP,-0.129
18,RRIRMRPPRLPRPRPRPKNYPRP,0.0737
19,RRIRYRPPRLPRPRPRPWPSPRP,-0.00149
20,RRIRSRPPRLPRPRPRPRNCPRP,0.5
21,RRIRSRPPRLPRPRPRPKHEPRP,0.076
22,RRIRDRPPRLPRPRPRPCVRPRP,-0.111
23,RRIRYRPPRLPRPRPRPTACPRP,-0.13
24,RRIRHRPPRLPRPRPRPVAEPRP,0.232
25,RRIRHRPPRLPRPRPRPYFFPRP,-0.485
